Test results published in patent US7223834.

Tested on: 41-mer peptide substrate (41-PS), QTVTWPDMELPLPRNITEGE-ARGSVILTVKPIFEVSPSPL-(BIOTINYL)K

## aggrecan degrading metallo protease (ADMP)
  cleavage of 41-PS to the 21-mer product, HPLC assay: Effect of incubation time was evaluated and found to be linear over the timecourse of the assay
